Data as given in patent publication US20200397896A1, “Combination Therapies Comprising Daratumumab, Bortezomib, Thalidomide and Dexamethasone and Their Uses” (Janssen Biotech, Inc., priority 2019, published 2020).

Experiments:
[1] = test system: patients with multiple myeloma; conditions: human, in vivo
[2] = test system: adult patients with relapsed and refractory multiple myeloma; conditions: human, in vivo
Source text: (§2) The median duration of exposure was 3.3 months (range: 0.03 to 20.04 months).

[3] = test system: patients with relapsed or refractory multiple myeloma who had received at least 3 prior lines of therapy; experiment: SIRIUS open-label trial, DARZALEX monotherapy efficacy; assay type: in vivo, human
Source text: (§1) Treatment continued until unacceptable toxicity or disease progression.

[4] = test system: patients with multiple myeloma; experiment: Clinical trials pooled (monotherapy and combination treatments; N=2,066), safety
[5] = test system: patients with relapsed or refractory multiple myeloma who had received at least 2 different cytoreductive therapies; experiment: GEN501 open-label dose escalation trial, DARZALEX monotherapy efficacy; assay type: in vivo, human
Source text: as §1

[6] = Clinical pharmacokinetics of daratumumab; conditions: 1 to 24 mg/kg monotherapy or 1 to 16 mg/kg combination therapy
[7] = test system: anti-daratumumab antibodies; experiment: Immunogenicity in clinical trials; assay type: in vivo, human
Source text: As with all therapeutic proteins, there is the potential for immunogenicity. The detection of antibody formation is highly dependent on the sensitivity and specificity of the assay. Additionally, the observed incidence of antibody (including neutralizing antibody) positivity in an assay may be influenced by several factors including assay methodology, sample handling, timing of sample collection, concomitant medications, and underlying disease. For these reasons, comparison of the incidence of antibodies to daratumumab in the studies described below with the incidence of antibodies in other studies or to other products may be misleading. […] One patient administered DARZALEX as combination therapy, developed transient neutralizing antibodies against daratumumab. However, this assay has limitations in detecting anti-daratumumab antibodies in the presence of high concentrations of daratumumab; therefore, the incidence of antibody development might not have been reliably determined.

[8] = test system: patients with newly diagnosed multiple myeloma eligible for ASCT; conditions: in vivo
Source text: Safety evaluations will include adverse event monitoring, physical examinations, electrocardiogram monitoring (ECGs), clinical laboratory parameters (hematology and chemistry), vital sign measurements, and Eastern Cooperative Oncology Group (ECOG) performance status.
In general, adverse events that occurred during the induction/consolidation and maintenance stages will be summarized separately. Treatment-emergent adverse events for each stage will be defined as events that occur or worsen after administration of the first dose of during that stage and through 30 days after the last dose of study drug in that stage and before the next phase of treatment begins.
Melphalan 200 mg/m^2 was pre-ASCT high-dose therapy.

[9] = human, in vivo
[10] = DARZALEX solution pH and storage of diluted solution; assay type: physicochemical
Source text: Prepare the solution for infusion using aseptic technique as follows: • Calculate the dose (mg), total volume (mL) of DARZALEX solution required and the number of DARZALEX vials needed based on patient actual body weight. • Check that the DARZALEX solution is colorless to pale yellow. […] Infusion bags/containers must be made of either polyvinylchloride (PVC), polypropylene (PP), polyethylene (PE) or polyolefin blend (PP+PE). Dilute under appropriate aseptic conditions. Discard any unused portion left in the vial. • Gently invert the bag/container to mix the solution. […] The diluted solution may develop very small, translucent to white proteinaceous particles, as daratumumab is a protein. […] (59° F.-77° F.) and in room light. Diluted solution may be kept at room temperature for a maximum of 15 hours (including infusion time). • If not used immediately, the diluted solution can be stored prior to administration for up to 24 hours at refrigerated conditions 2° C.-8° C. (36° F.-46° F.) and protected from light.
DARZALEX is supplied as a colorless to pale yellow preservative-free solution for intravenous infusion in single-dose vials. The pH is 5.5.

[11] = test system: adult patients with relapsed and refractory multiple myeloma; experiment: DARZALEX monotherapy safety, three open-label clinical trials
Source text: as §2

DARZALEX: IgG1κ human monoclonal antibody against CD38; HC SEQ ID NO: 9, LC SEQ ID NO: 10
Hepatitis B virus reactivation [1]: less than 1% | herpes zoster [2]: 3% | median duration of response [3]: 7.4 months | median time to response [3]: 1 month | Overall response rate (ORR) ([3]; N = 106): (29.2%) | Partial response (PR) ([3]; N = 106): (17.0%) | Stringent complete response (sCR) ([3]; N = 106): (2.8%) | Very good partial response (VGPR) ([3]; N = 106): (9.4%) | Grade 3/4 infusion reaction at Week 2 or subsequent infusions ([4]; N=2,066): Less than 1% | incidence of any grade infusion reactions, Week 2 infusion ([4]; N=2,066): 2% | incidence of any grade infusion reactions, first (16 mg/kg, Week 1) infusion ([4]; N=2,066): 37% | incidence of any grade infusion reactions, subsequent infusions (cumulatively) ([4]; N=2,066): 6% | incidence of infusion modification due to reactions ([4]; N=2,066): 36% | patients who experienced an infusion reaction ([4]; clinical trials, all patients): approximately half | persistence of positive indirect antiglobulin test after the last infusion ([4]; human, in vivo): up to 6 months | CR, number of patients ([5]; GEN501): 1 | VGPR, number of patients ([5]; GEN501): 3 | median duration of response ([5]; GEN501): not estimable | median time to response ([5]; GEN501): 1 month | Overall response rate ([5]; GEN501, 42 patients, 16 mg/kg): 36% | area under the concentration-time curve (AUC) versus dose [6]: increases more than proportionally | patients positive for anti-daratumumab antibodies ([7]; 111 evaluable monotherapy patients): none | patients positive for anti-daratumumab antibodies ([7]; 1,050 evaluable combination therapy patients): 2 | patients who developed transient neutralizing antibodies against daratumumab ([7]; combination therapy): One | IRRs Grade 3 or 4 at re-initiation following ASCT [8]: < 1% | incidence of IRRs, first infusion following ASCT [8]: 11% | linear clearance, mean±SD [9]: 171.4 ± 95.3 mL/day | terminal half-life associated with linear clearance, mean±SD [9]: 18 ± 9 days | time to steady state into the every 4-week dosing period [9]: approximately 5 months | trough serum concentration (Cmin) at the end of weekly dosing, mean±SD [9]: 573 ± 332 µg/mL | volume of distribution [9]: 4.7 ± 1.3 L | storage time of diluted solution at refrigerated conditions ([10]; 2° C.-8° C., protected from light): up to 24 hours | storage time of diluted solution at room temperature (including infusion time) ([10]; 15° C.-25° C., room light, diluted in 0.9% Sodium Chloride): ≤ 15 h | pH of solution ([10]; single-dose vial solution): 5.5 | Serious adverse reaction: general physical health deterioration ([11]; monotherapy): 3% | Serious adverse reaction: pneumonia ([11]; monotherapy): 6% | Serious adverse reaction: pyrexia ([11]; monotherapy): 3% | discontinuations due to adverse reactions ([11]; monotherapy): 4% | treatment delay due to adverse reactions ([11]; monotherapy): 15% | Arthralgia, Any Grade ([11]; monotherapy 16 mg/kg, N = 156): 17% | Arthralgia, Grade 3 ([11]; monotherapy 16 mg/kg, N = 156): 0% | Arthralgia, Grade 4 ([11]; monotherapy 16 mg/kg, N = 156): 0% | Back pain, Any Grade ([11]; monotherapy 16 mg/kg, N = 156): 23% | Back pain, Grade 3 ([11]; monotherapy 16 mg/kg, N = 156): 2% | Back pain, Grade 4 ([11]; monotherapy 16 mg/kg, N = 156): 0% | Chills, Any Grade ([11]; monotherapy 16 mg/kg, N = 156): 10% | Chills, Grade 3 ([11]; monotherapy 16 mg/kg, N = 156): 0% | Chills, Grade 4 ([11]; monotherapy 16 mg/kg, N = 156): 0% | Constipation, Any Grade ([11]; monotherapy 16 mg/kg, N = 156): 15% | Constipation, Grade 3 ([11]; monotherapy 16 mg/kg, N = 156): 0% | Constipation, Grade 4 ([11]; monotherapy 16 mg/kg, N = 156): 0% | Cough, Any Grade ([11]; monotherapy 16 mg/kg, N = 156): 21% | Cough, Grade 3 ([11]; monotherapy 16 mg/kg, N = 156): 0% | Cough, Grade 4 ([11]; monotherapy 16 mg/kg, N = 156): 0% | Decreased appetite, Any Grade ([11]; monotherapy 16 mg/kg, N = 156): 15% | Decreased appetite, Grade 3 ([11]; monotherapy 16 mg/kg, N = 156): 1%
